B1: antibody 132 (antibody, V domains shown)
VH: QVQLQQWGAGLLKPSETLSLTCAVYGGSFSGYYWSWIRQPPGKGLEWIGEINHSGSTNYNPSLKSRVTISVDTSKNQFSLKLSSVTAADTAVYYCARTDYYDSIDWGQGTLVTVSS
VL: QSVLTQEPSLTVSPGGTVTLTCGSSTGAVTSGHYPYWFQQKPGQVPRTLIYDTRNKHSWTPARFSGSLLGGKAALTLSGAQPEDEAEYYCLLSSSGARVFGGGTKLTVL
B2: antibody 58 (antibody, V domains shown)
VH: QVQLVESGGGLVQPGRSLRLSCAASGFTFDDYAMHWVRQPPGKGLEWVSGVSWNSGTIGYADSVKGRFIISRDNAKNSLYLQMNSLKAEDTALYYCAREVGGTFGVLISREGGLDYWGQGTLVTVSS
VL: SYELTQPPSVSVAPGQTARITCGGNTIGSKSVHWYQQRPGQAPVLVVYDDSDRPSGIPERFSGSNSGNTATLTISRVEAGDEADYYCQVWDSSSDRVVFGGGTKLTVL
B3: antibody 175 (antibody, V domains shown)
VH: EVQLVESGGGLIQPGGSLRLSCAASGLTVSRNYMSWVRQAPGKGLEWVSLIYSGGSTYYADSVKGRFTISRDNSKNTLYLQMNSLRAEDTAVYYCARDLRGEVWGQGTMVTVSS
VL: not shown
B4: antibody 281 (antibody, V domains shown)
VH: QVQLVESGGGLVQPGGSLRLSCAASGFPFSIYWMSWVRQAPGKGLEWVANIKQDGSEKYYVDSVKGRFTISRDNAKNSLYLHMNSLRGEDTAVYYCASRYYDFRPEAWFDYWGQGTLVTVSS
VL: not shown
B5: antibody 150 (antibody, V domains shown)
VH: QVQLVESGGGLIQPGGSLRLSCAASGVTVSSNYMSWVRQAPGKGLEWVSIIYSGGTTYYADSVKGRFTISRDSSMNTLYLQMNSLRAEDTAVYYCARDLMVYGIDVWGQGTTVTVSS
VL: EIVMTQSPSSLSASVGDRVTITCRASQGISSYLAWYQQKPGKAPKLLIYAASTLQSGVPSRFSGSGSGTDFTLTISSLQPEDFATYYCQQLDSYPPGYTFGQGTKVDIK
B6: antibody 253H165L (antibody, V domains shown)
VH: not shown
VL: DIVMTQSPGTLSLSPGERATLSCRASQSVRSSYLAWYQQKPGQAPRLLIYGASRRGTGIPDRFSGSGSGTDFTLTISRLEPEDFAVYYCQQYGSSPWTFGQGTKVEIK
B7: antibody 165 (antibody, V domains shown)
VH: QVQLVQSGPEVKKPGTSVKVSCKASGFTFTSSAVQWVRQARGQRLEWIGWIVVGSGNTNYAQKFQESVTITRDMSTSTAYMELSSLRSEDTAVYYCAAPHCIGGSCHDAFDIWGQGTMVTVSS
VL: B6 VL
B8: antibody 158 (antibody, V domains shown)
VH: EVQLLESGGDLIQPGGSLRLSCAASGVTVSSNYMSWVRQAPGKGLEWVSIIYPGGSTFYADSVKGRFTISRDNSKNTLYLQMHSLRAEDTAVYYCARDLGSGDMDVWGKGTTVTVSS
VL: DIVMTQSPSFLSASVGDRVTITCRASQGISSYLAWYQQKPGKAPKLLIQAASTLQSGVPSRFSGSGSGTEFTLTISSLQPEDFATYYCQQLNSYRYTFGQGTKVEIK
B9: antibody 222 (antibody, V domains shown)
VH: EVQLVESGGGLIQPGGSLRLSCAASGLTVSSNYMSWVRQAPGKGLEWVSVIYSGGSTFYADSVKGRFTISRDNSKNTLYLQMNSLGAEDTAVYYCARGEGSPGNWFDPWGQGTLVTVSS
VL: DVVMTQSPGTLSLSPGERATLSCRASQSVPSSYLAWYQQKPGQAPRLLIYGASTRATGIPDRFSGSGSGTDFTLTISRLEPEDFAVYYCQHYDTSPRFGGGTKVDIK
B10: antibody 384 (antibody, V domains shown)
VH: EVQLVESGGGLVKPGESLRLSCAASGFTFSDYYMTWIRQAPGKGLEWVSYIRSSGHTIYYADSVKGRFTISRDNAKNSLYLQMNSLRVEDTAVYYCARGGVLRFLEWPLNAFDIWGQGTMVTVSS
VL: DIQLTQSPSSLSASVGDRVTITCRASQGISNYLAWYQQKPGKVPKLLIYAASTLQSGVPSRFSGSGSGTDFTLTISSLQPEDVATYYCQKYNNALGTFGQGTKVEIK
B11: antibody 384 (antibody, V domains shown)
VH: B10 VH
VL: B10 VL
B12: antibody 88 (antibody, V domains shown)
VH: QLQLQESGPGLVKPSQTLSLTCTVSGGSISSGSYNWTWIRQPAGKGLEWIGRIYNSGSTNYNPSLKSRVTISVDTSKNQLSLKVRSVTAADTAVYYCARHCSGGTCYPKYYYGMDVWGQGTTVTVSS
VL: QSALTQPPSVSEAPRQRVTISCSGSSSNIGNNAVNWYQQFPGKAPKLLIYYDDLLPSGVSDRFSGSKSGTSASLAISGVQSEDEADYYCAAWDDSLNVVVFGGGTKLTVL
B13: antibody 40 (antibody, V domains shown)
VH: QVQLVESGGGLVQPGGSLRLSCAVSGFTVSRNYMSWVRQAPGKGLEWVSLIYSGGSTFYADSVKGRFTISRDNSKNTLYLQMNSLRAEDTAVYYCARDLFHRSGYHDYWGQGTLVTVSS
VL: not shown
B14: antibody 278 (antibody, V domains shown)
VH: QVQLVQSGAEVKKPGASVKVSCKASGYIFIRYGISWVRQAPGQGLEWMGWISANNGYTNYAQKLQGRVTMTTDTSTSTAYMELRSLRSDDTAVYYCARDGGILTGYLDYFDHWGQGTLVTVSS
VL: DIQMTQSPSSLSASVGDRLTITCRASQSIASYLNWYQQKPGKAPKLLIYAASSLQSGVPSRFSGSGSGTDFTLTISSLQPEDFATYHCQQSYSTLGITFGPGTKVDIK
B15: antibody 170 (antibody, V domains shown)
VH: QVQLVESGAEVKKPGESLKISCKGSGYSFTSYWIVWVRQMPGKGLEWMGIIYPGDSDTKYSPSFQGQVSISADKPISTAYLQWSRLKASDTAMYYCARLGNWLVDYWGQGTLVTVSS
VL: DIVMTQSPLSLSVTPGQPASISCKSSQSLLHSDGKTYLYWYLQKPGQPPQLLMYEVSNRFSGVPDRFSGSGSGTDFTLKISRVESEDVGVYYCMQSIQLPRGITFGQGTRLEIK
B16: antibody 269 (antibody, V domains shown)
VH: QVQLVESGGGLIQPGGSLRLSCAASGLTVNRNYMSWIRQAPGKGLEWVSVIYSGGSTFYADSVKGRFTISRDNSKNTLSLQMNSLRAEDTAIYYCARDFYEGSFDIWGQGTMVTVSS
VL: AIQLTQSPSFLSASIGDRVTITCRASQGISSYLAWYQQKPGKAPKLLIYAASTLQSGVPSRFSGSGSGTEFTLTISSLQPEDFASYYCQQLNSYPAPVFGPGTKVDIK

Columns and labels:
Assay in all cases: cell-based or functional assay
[1] = biological target: spike protein of SARS-CoV-2 strain B.1.351 (SARS-CoV-2, UniProt P0DTC2 14-1273)
[2] = biological target: spike protein of SARS-CoV-2 strain Victoria (SARS-CoV-2/human/AUS/VIC01/2020) (SARS-CoV-2, UniProt P0DTC2 14-1273)
[3] = biological target: spike protein of SARS-CoV-2 strain B.1.351 (SARS-CoV-2, UniProt P0DTC2 14-1273); remark: listed apart in the source
[4] = biological target: spike protein of SARS-CoV-2 strain P.1 (SARS-CoV-2, UniProt P0DTC2 14-1273)
[5] = biological target: spike protein of SARS-CoV-2 strain B.1.1.7 (SARS-CoV-2, UniProt P0DTC2 14-1273)

| Binder | IC50 (FRNT, live virus neutralisation) [1] | IC50 (FRNT, live virus neutralisation) [2] | other results |
| --- | --- | --- | --- |
| B1 | > 10 µg/mL | 0.048 µg/mL | – |
| B2 | 0.136 µg/mL | 0.041 µg/mL | – |
| B3 | > 10 µg/mL | 0.026 µg/mL | – |
| B4 | > 10 µg/mL | 0.005 µg/mL | – |
| B5 | 0.35 µg/mL | 0.012 µg/mL | B.1.351/Victoria ratio (IC50) [1]: 30 |
| B6 | 0.013 µg/mL | 0.003 µg/mL | – |
| B7 | 0.054 µg/mL | 0.034 µg/mL | – |
| B8 | > 10 µg/mL | 0.031 µg/mL | – |
| B9 | 0.017 µg/mL | 0.019 µg/mL | – |
| B10 | > 10 µg/mL | – | – |
| B11 | – | – | IC50 (FRNT neutralisation) [3]: > 10 µg/mL; IC50 (FRNT neutralisation) [4]: > 10 µg/mL; IC50 (FRNT neutralisation) [5]: 0.005 µg/mL |
| B12 | > 10 µg/mL | 0.033 µg/mL | – |
| B13 | 0.738 µg/mL | 0.026 µg/mL | – |
| B14 | 0.16 µg/mL | 0.014 µg/mL | – |
| B15 | > 10 µg/mL | 0.025 µg/mL | – |
| B16 | > 10 µg/mL | 0.03 µg/mL | – |
